Test results as given in US20050137135A1 (priority 2002, published 2005).
Square brackets hold non-standard residues; d marks the D form. Ends that are not written are not given here. Peptide text beside a SMILES is read from it. Ahx = NCCCCCC(=O)O

T1: rat pancreatic islet (wild type) GIP-receptor (Rattus norvegicus, UniProt P43219)
T1 construct: expressed in transfected cells; host or cells: CHO-K1 (Chinese hamster ovary)
T1 sequence (P43219 19-455): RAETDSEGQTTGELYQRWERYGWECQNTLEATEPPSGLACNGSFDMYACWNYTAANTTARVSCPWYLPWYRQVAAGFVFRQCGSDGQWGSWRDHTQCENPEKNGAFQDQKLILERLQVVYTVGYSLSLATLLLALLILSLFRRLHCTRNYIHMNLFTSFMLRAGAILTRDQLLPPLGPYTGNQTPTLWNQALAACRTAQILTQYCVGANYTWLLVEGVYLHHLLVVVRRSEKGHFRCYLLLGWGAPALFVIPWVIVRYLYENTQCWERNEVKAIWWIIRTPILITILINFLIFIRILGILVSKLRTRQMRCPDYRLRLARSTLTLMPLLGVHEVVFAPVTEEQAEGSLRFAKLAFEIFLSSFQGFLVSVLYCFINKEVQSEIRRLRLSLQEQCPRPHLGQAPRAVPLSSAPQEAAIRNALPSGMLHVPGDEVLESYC

T2: rat pancreatic islet (wild type) GIP-receptor stably expressed on CHO-K1 cells (rat, UniProt P43219 19-455)
T2 sequence (looked up): T1 sequence (P43219 19-455)

B1: GIP(1-6)(EKEK)(19-30)NH2 (peptide)
peptide: YAEGTFEKEKQQDFVNWLLAQK-NH2
notes: range 1-6;range 19-30
B2: GIP(1-6)(19-30)NH2 (peptide, UniProt P09681 52-57, looked up)
peptide: YAEGTFQQDFVNWLLAQK-NH2
notes: range 1-6;range 19-30; Core deletion, no linker (formula 5, C not used, truncated at residue 30)
B3: GIP(1-6)(Ahx)1(19-30)NH2 (peptide, UniProt P09681 52-57, looked up)
peptide: YAEGTF[Ahx]QQDFVNWLLAQK-NH2
modifications: N-terminus assumed
SMILES: CC(C)C[C@H](NC(=O)[C@H](CC(C)C)NC(=O)[C@H](Cc1c[nH]c2ccccc12)NC(=O)[C@H](CC(N)=O)NC(=O)[C@@H](NC(=O)[C@H](Cc1ccccc1)NC(=O)[C@H](CC(=O)O)NC(=O)[C@H](CCC(N)=O)NC(=O)[C@H](CCC(N)=O)NC(=O)CCCCCNC(=O)[C@H](Cc1ccccc1)NC(=O)[C@@H](NC(=O)CNC(=O)[C@H](CCC(=O)O)NC(=O)[C@H](C)NC(=O)[C@@H](N)Cc1ccc(O)cc1)[C@@H](C)O)C(C)C)C(=O)N[C@@H](C)C(=O)N[C@@H](CCC(N)=O)C(=O)N[C@@H](CCCCN)C(N)=O
notes: range 52-57
B4: GIP(1-6)(EKEEKEKEEKE)(19-30)NH2 (peptide)
peptide: YAEGTFEKEEKEKEEKEQQDFVNWLLAQK-NH2
notes: range 1-6;range 19-30; The expected mass 3574.0 fits the 11-residue linker as printed
B5: GIP(1-6)(AAAA)(19-30)NH2 (peptide)
peptide: YAEGTFAAAAQQDFVNWLLAQK-NH2
notes: range 1-6;range 19-30; also called GIP(l-6)(AAAA)(19-30)NH2

Assays:
[1] = target: T1, rat pancreatic islet (wild type) GIP-receptor; experiment: cAMP production in CHO-K1 cells expressing the GIP-receptor (wtGIP-R1 cells); type: cell-based; conditions: Table 3; cyclic AMP stimulated by 20 μM peptide if plateau levels were not achieved
Experimental: (§1) Cells were cultured in DMEM/F12, supplemented with 10% newborn calf serum, 50 units/ml penicillin G, and 50 μg/ml streptomycin (Culture media and antibiotics from Gibco BRL, Life Technologies). Cells were grown in 75 cm^2 flasks until 80-90% confluent, when they were split and seeded onto 24 well plates at a density of 50,000 cells/well. Experiments were carried out 48 h later.
Cells were extracted with 70% ethanol and cAMP levels measured by radioimmunoassay (Biomedical Technologies, Stoughton, Mass.). Data are expressed as fmol/1000 cells or % maximal GIP1-42-stimulated cAMP production (inhibition experiments).

[2] = target: T1, rat pancreatic islet (wild type) GIP-receptor; experiment: biochemical; type: binding; conditions: read-out: Receptor Binding % Displacement at 20 μM
Experimental: as §1
(§2) Binding studies using ^125I-labeled spGIP1-42, purified by high performance liquid chromatography (HPLC), were performed essentially as described previously-[21]. wtGIP-R1 Cells (1-5×10^5/well) were washed twice at 4° C. in binding buffer (BB), consisting of DMEM/F12 (GIBCO), 15 mM HEPES, 0.1% bovine serum albumin (BSA), 1% Trasylol (aprotinin; Bayer), pH 7.4. They were incubated for 12-16 h at 4° C. with ^125I-spGIP (50,000 cpm) in the presence or absence of unlabeled GIP1-42 or analogue. Following incubation, cells were washed twice with ice cold buffer, solubilized with 0.1 M NaOH (1 ml), and transferred to culture tubes for counting of cell-associated radioactivity. Nonspecific binding was defined as that measured in the presence of 1 μM GIP1-42 or GIP1-30, and specific binding expressed as % of binding in the absence of competitor (% B/Bo).

[3] = target: T2, rat pancreatic islet (wild type) …; experiment: cell-based or functional assay
[4] = target: T2, rat pancreatic islet (wild type) …; experiment: competition with 125I-GIP on CHO-K1 cells transfected with rat GIP receptor
Experimental: as §1, with “cm²” for “cm^2”
as §2, with “¹²⁵I-labeled spGIP₁₋₄₂,” for “^125I-labeled spGIP1-42,”, “(1-5×10⁵/well)” for “(1-5×10^5/well)”, “¹²⁵I-spGIP” for “^125I-spGIP”, “GIP₁₋₄₂” for “GIP1-42”, “GIP₁₋₃₀,” for “GIP1-30,”

[5] = target: T2, rat pancreatic islet (wild type) …; experiment: displacement of 125I-GIP from CHO-K1 cells transfected with rat GIP receptor, 20 µM peptide
Experimental: as §1, with “cm²” for “cm^2”
as §2, with “¹²⁵I-labeled spGIP₁₋₄₂,” for “^125I-labeled spGIP1-42,”, “(1-5×10⁵/well)” for “(1-5×10^5/well)”, “¹²⁵I-spGIP” for “^125I-spGIP”, “GIP₁₋₄₂” for “GIP1-42”, “GIP₁₋₃₀,” for “GIP1-30,”

Molecule | cAMP Production Max. cAMP (Fold Basal) [1] | inhibition at 20 µM [2] | Max. cAMP (Fold Basal) [3] | IC50 [4] | % Displacement at 20 µM [5] | cAMP Production EC50 [3]
CC[C@H](C)[C@H](NC(=O)[C@H](CO)NC(=O)[C@H](Cc1ccc(O)cc1)NC(=O)[C@H](CC(=O)O)NC(=O)[C@H](CO)NC(=O)[C@@H](NC(=O)[C@H](Cc1ccccc1)NC(=O)[C@@H](NC(=O)CNC(=O)[C@H](CCC(=O)O)NC(=O)[C@H](C)NC(=O)[C@@H](N)Cc1ccc(O)cc1)[C@@H](C)O)[C@@H](C)CC)C(=O)N[C@@H](C)C(=O)N[C@@H](CCSC)C(=O)NCCCCCC(=O)NCCCCCC(=O)NCCCCCC(=O)N[C@@H](CCC(N)=O)C(=O)N[C@@H](CCC(N)=O)C(=O)N[C@@H](CC(=O)O)C(=O)N[C@@H](Cc1ccccc1)C(=O)N[C@H](C(=O)N[C@@H](CC(N)=O)C(=O)N[C@@H](Cc1c[nH]c2ccccc12)C(=O)N[C@@H](CC(C)C)C(=O)N[C@@H](CC(C)C)C(=O)N[C@@H](C)C(=O)N[C@@H](CCC(N)=O)C(=O)N[C@@H](CCCCN)C(N)=O)C(C)C [GlP(1-14)(Ahx)3(19-30)NH2] (H-YAEGTFISDYSIAM[Ahx][Ahx][Ahx]QQDFVNWLLAQK-NH2; N-terminus assumed) | 49.5 ± 1.6 Fold Basal | 82.7 ± 3.2% |  |  |  | 
YAEGTFAAAAQQDFVNWLLAQK-NH2 [GIP(l-6)(AAAA)(19-30)NH2] | 7.21 ± 0.99 Fold Basal | 88.7 ± 3% |  |  |  | 
YAEGTFEKEEKEKEEKEQQDFVNWLLAQK-NH2 | 84.9 ± 8.1 Fold Basal | 75.1 ± 2.7% |  |  |  | 
YAEGTFEKEKQQDFVNWLLAQK-NH2 [GIP(1-6)(EKEK)(19-30)NH2] | 8.17 ± 0.87 Fold Basal | 86.8 ± 1.6% |  |  |  | 
YAEGTFISDYSIAMAAAAQQDFVNWLLAQK-NH2 [GIP(1-14)(AAAA)(19-30)NH2] | 82.1 ± 2.8 Fold Basal | 100 ± 0.9% |  |  |  | 
YAEGTFISDYSIAMEKEKQQDFVNWLLAQK-NH2 [GIP(1-14)(EKEK)(19-30)NH2] | 80.6 ± 5.6 Fold Basal | 98.7 ± 1.1% |  |  |  | 
YAEGTFISDYSIAMQQDFVNWLLAQK-NH2 [GIP(1-14)(19-30)NH2] | 127 ± 22 Fold Basal | 95.4 ± 0.7% |  |  |  | 
YAEGTFQQDFVNWLLAQK-NH2 [GIP(1-6)(19-30)NH2] | 1.81 ± 0.42 Fold Basal | 88.2 ± 0.7% |  |  |  | 
B1 |  |  | 8.17 fold basal | 2.09 µM | 86.8% | 
B2 |  |  | 1.81 fold basal | 2.74 µM | 88.2% | 
B3 |  |  | 95.9 fold basal | 8.73 µM | 62% | 14.5 µM
B4 |  |  | 84.9 fold basal | 4.27 µM | 75.1% | 8.39 µM
B5 |  |  | 7.21 fold basal | 2.41 µM | 88.7% | 
